Results: patent publication US20060241051A1 (Takeda / Millennium, published 2006)
Like-named read-outs stand apart in the source and are kept apart here. Numbered stars: 1 amine (or outer) side, 2 acyl side, 3 side chain; on linkers, the order of the positions; unused ones are H or OH. Square brackets hold non-standard residues; d marks the D form. Ends that are not written are not given here. * marks the point of attachment. Ala(2-Qui) = 2-quinolylalanine, O=C([C@H](Cc1ccc2ccccc2n1)N[*:1])[*:2]; Phe(4-F) = N[C@@H](Cc1ccc(F)cc1)C(=O)O; Arg(Me) = CNC(=N)NCCC[C@H](N)C(=O)O; Fmoc = O=C(OCC1c2ccccc2-c2ccccc21)*; Lys(Me2) = CN(C)CCCC[C@H](N)C(=O)O; 4Pal = N[C@@H](Cc1ccncc1)C(=O)O; d3Pal = N[C@H](Cc1cccnc1)C(=O)O; d4Pal = N[C@H](Cc1ccncc1)C(=O)O; Cha = N[C@@H](CC1CCCCC1)C(=O)O; Orn = NCCC[C@H](N)C(=O)O; azaGly = NNC(=O)O

B1: Compound No. 301: [D-Tyr1,Ala(2-Qui) 3,AzaGly7,Arg(Me)9]MS10 (peptide)
peptide: [dY]N[Ala(2-Qui)]NSF[azaGly]L[Arg(Me)]F-NH2
modifications: N-terminus assumed
SMILES: CNC(=N)NCCC[C@H](NC(=O)[C@H](CC(C)C)NC(=O)NNC(=O)[C@H](Cc1ccccc1)NC(=O)[C@H](CO)NC(=O)[C@H](CC(N)=O)NC(=O)[C@H](Cc1ccc2ccccc2n1)NC(=O)[C@H](CC(N)=O)NC(=O)[C@H](N)Cc1ccc(O)cc1)C(=O)N[C@@H](Cc1ccccc1)C(N)=O
B2: Compound No. 306: [D-Pya(4)1,D-Asn2,Cha3,AzaGly7,Arg(Me)9]MS10 (peptide)
peptide: [d4Pal][dN][Cha]NSF[azaGly]L[Arg(Me)]F-NH2
modifications: N-terminus assumed
SMILES: CNC(=N)NCCC[C@H](NC(=O)[C@H](CC(C)C)NC(=O)NNC(=O)[C@H](Cc1ccccc1)NC(=O)[C@H](CO)NC(=O)[C@H](CC(N)=O)NC(=O)[C@H](CC1CCCCC1)NC(=O)[C@@H](CC(N)=O)NC(=O)[C@H](N)Cc1ccncc1)C(=O)N[C@@H](Cc1ccccc1)C(N)=O
B3: Compound No. 291: [D-Pya(3)1,D-Tyr2,Cha3,AzaGly7,Arg(Me)9]MS10 (peptide)
peptide: [d3Pal][dY][Cha]NSF[azaGly]L[Arg(Me)]F-NH2
modifications: N-terminus assumed
SMILES: CNC(=N)NCCC[C@H](NC(=O)[C@H](CC(C)C)NC(=O)NNC(=O)[C@H](Cc1ccccc1)NC(=O)[C@H](CO)NC(=O)[C@H](CC(N)=O)NC(=O)[C@H](CC1CCCCC1)NC(=O)[C@@H](Cc1ccc(O)cc1)NC(=O)[C@H](N)Cc1cccnc1)C(=O)N[C@@H](Cc1ccccc1)C(N)=O
B4: Compound No. 209: [D-Tyr1,Gln4,Arg(Me)9]MS10 (peptide)
peptide: [dY]NWQSFGL[Arg(Me)]F-NH2
modifications: N-terminus assumed
SMILES: CNC(=N)NCCC[C@H](NC(=O)[C@H](CC(C)C)NC(=O)CNC(=O)[C@H](Cc1ccccc1)NC(=O)[C@H](CO)NC(=O)[C@H](CCC(N)=O)NC(=O)[C@H](Cc1c[nH]c2ccccc12)NC(=O)[C@H](CC(N)=O)NC(=O)[C@H](N)Cc1ccc(O)cc1)C(=O)N[C@@H](Cc1ccccc1)C(N)=O
B5: Compound No. 317: [D-Tyr1,D-Asn2,Pya(4) 3,AzaGly7,Arg(Me)9,Phe(4F)10]MS10 (peptide)
peptide: [dY][dN][4Pal]NSF[azaGly]L[Arg(Me)][Phe(4-F)]-NH2
modifications: N-terminus assumed
SMILES: CNC(=N)NCCC[C@H](NC(=O)[C@H](CC(C)C)NC(=O)NNC(=O)[C@H](Cc1ccccc1)NC(=O)[C@H](CO)NC(=O)[C@H](CC(N)=O)NC(=O)[C@H](Cc1ccncc1)NC(=O)[C@@H](CC(N)=O)NC(=O)[C@H](N)Cc1ccc(O)cc1)C(=O)N[C@@H](Cc1ccc(F)cc1)C(N)=O
B6: Compound No. 207: [D-Tyr1,Ser4,Arg(Me)9]MS10 (peptide)
peptide: [dY]NWSSFGL[Arg(Me)]F-NH2
modifications: N-terminus assumed
SMILES: CNC(=N)NCCC[C@H](NC(=O)[C@H](CC(C)C)NC(=O)CNC(=O)[C@H](Cc1ccccc1)NC(=O)[C@H](CO)NC(=O)[C@H](CO)NC(=O)[C@H](Cc1c[nH]c2ccccc12)NC(=O)[C@H](CC(N)=O)NC(=O)[C@H](N)Cc1ccc(O)cc1)C(=O)N[C@@H](Cc1ccccc1)C(N)=O
B7: Compound No. 173: [D-Tyr1,Ala7,Arg(Me)9]MS10 (peptide)
peptide: [dY]NWNSFAL[Arg(Me)]F-NH2
modifications: N-terminus assumed
SMILES: CNC(=N)NCCC[C@H](NC(=O)[C@H](CC(C)C)NC(=O)[C@H](C)NC(=O)[C@H](Cc1ccccc1)NC(=O)[C@H](CO)NC(=O)[C@H](CC(N)=O)NC(=O)[C@H](Cc1c[nH]c2ccccc12)NC(=O)[C@H](CC(N)=O)NC(=O)[C@H](N)Cc1ccc(O)cc1)C(=O)N[C@@H](Cc1ccccc1)C(N)=O
B8: Compound No. 314: [Orn9]MS10 (peptide)
peptide: YNWNSFGL[Orn]F-NH2
modifications: N-terminus assumed
SMILES: CC(C)C[C@H](NC(=O)CNC(=O)[C@H](Cc1ccccc1)NC(=O)[C@H](CO)NC(=O)[C@H](CC(N)=O)NC(=O)[C@H](Cc1c[nH]c2ccccc12)NC(=O)[C@H](CC(N)=O)NC(=O)[C@@H](N)Cc1ccc(O)cc1)C(=O)N[C@@H](CCCN)C(=O)N[C@@H](Cc1ccccc1)C(N)=O
B9: Compound No. 296: [6Ψ7,CSNH,D-Tyr1,Arg(Me)9]MS10 (peptide)
peptide: [dY]NWNSFGL[Arg(Me)]F-NH2
modifications: also: Phe6-Gly7 thioamide (CSNH)
notes: also called [6y7,CSNH,D-Tyr1,Arg(Me)9]MS10

Tests used:
[1] = target: T1, human OT7T175 (metastin receptor) (human, UniProt Q969F8 1-398); experiment: cell-based or functional assay
[2] = target: T1, human OT7T175 (metastin receptor); experiment: FMAT competition with Cy-5-labeled metastin (40-54), hOT7T175-expressed CHO cells
[3] = target: human OT7T175 (metastin receptor) (human) (UniProt Q969F8); experiment: cell-based or functional assay
[4] = target: T1, human OT7T175 (metastin receptor); experiment: cell-based or functional assay; remark: listed apart in the source

T1 sequence (Q969F8 whole entry L364H): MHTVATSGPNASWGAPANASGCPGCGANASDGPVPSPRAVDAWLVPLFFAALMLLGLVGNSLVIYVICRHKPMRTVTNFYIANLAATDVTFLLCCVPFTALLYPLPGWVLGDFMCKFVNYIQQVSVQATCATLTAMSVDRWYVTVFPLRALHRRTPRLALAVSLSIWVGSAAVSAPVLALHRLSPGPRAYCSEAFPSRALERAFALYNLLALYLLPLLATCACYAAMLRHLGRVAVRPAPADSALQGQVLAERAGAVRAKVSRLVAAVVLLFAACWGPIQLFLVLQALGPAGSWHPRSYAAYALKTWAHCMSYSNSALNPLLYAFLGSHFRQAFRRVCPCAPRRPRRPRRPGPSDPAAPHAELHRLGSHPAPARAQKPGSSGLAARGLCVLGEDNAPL
Sequence of human OT7T175 (metastin receptor) (human) (Q969F8 whole entry L364H): as above

Binder	intracellular Ca ion level-increasing activity (FLIPR) [1]	IC50 [2] [nM]	intracellular Ca ion level-increasing activity (FLIPR) (specific activity to metastin (1-54)) [3]	intracellular Ca ion level-increasing activity (FLIPR) [4]
[dY]N[d4Pal]NSF[azaGly]L[Arg(Me)]F-NH2 [Compound No. 302: [D-Tyr1,D-Pya(4) 3,AzaGly7,Arg(Me)9]MS10]	2 specific activity to metastin (1-54)	7.7	–	–
[dY]NWNTF[azaGly]L[Arg(Me)]F-NH2 [Compound No. 297: [D-Tyr1,Thr5,AzaGly7,Arg(Me)9]MS10]	1 specific activity to metastin (1-54)	0.93	–	–
[dY][dN]WNTF[azaGly]L[Arg(Me)]F-NH2 [Compound No. 298: [D-Tyr1,D-Asn2,Thr5,AzaGly7,Arg(Me)9]MS10]	5 specific activity to metastin (1-54)	0.25	–	–
[dY][dN]TNSF[azaGly]L[Arg(Me)][Phe(4-F)]-NH2 [Compound No. 316: [D-Tyr1,D-Asn2,Thr3,AzaGly7,Arg(Me)9,Phe(4F)10]MS10]	1 specific activity to metastin (1-54)	26	–	–
B1	1 specific activity to metastin (1-54)	15	–	–
[dY]NWNSFGL[Arg(Me)]F-NH2 (also: Phe6-Gly7 bond replaced by NHCO (retro-inverso)) [Compound No. 319: [6Ψ7,NHCO,D-Tyr1,Arg(Me)9]MS10]	3 specific activity to metastin (1-54)	–	–	–
B2	2 specific activity to metastin (1-54)	4.4	–	–
YNWNSXGLRF (D-Tyr1; Cha6; Arg(Me)9; C-terminal amide) [Compound No. 172: [D-Tyr1,Cha6,Arg(Me)9]MS10]	–	–	1	–
YNWNSFGL[Lys(Me2)]F-NH2 [Compound No. 98: [Lys(Me2)9]MS10]	–	–	0.5	–
B3	2 specific activity to metastin (1-54)	0.41	–	–
YNWNSFGLXF (Har(Me)9; C-terminal amide) [Compound No. 312: [Har(Me)9]MS10]	3 specific activity to metastin (1-54)	100	–	–
YNWNSFGLXF (Nar9; C-terminal amide) [Compound No. 310: [Nar9]MS10]	3 specific activity to metastin (1-54)	310	–	–
B4	–	–	0.5	–
YNWNSFGLXF (Nar(Me)9; C-terminal amide) [Compound No. 311: [Nar(Me)9]MS10]	1 specific activity to metastin (1-54)	470	–	–
B5	1 specific activity to metastin (1-54)	2.1	–	–
Y[dN][4Pal]NSF[azaGly]L[Arg(Me)]F-NH2 [Compound No. 304: [D-Asn2,Pya(4) 3,AzaGly7,Arg(Me)9]MS10]	3 specific activity to metastin (1-54)	5	–	–
B6	–	–	0.5	–
B7	–	–	1	–
Fmoc-NSFGL[Arg(Me)]F-NH2 [Compound No. 144: des(1-3)-Fmoc-[Arg(Me)9]MS10]	–	–	–	1 specific activity to metastin (1-54)
B8	1 specific activity to metastin (1-54)	470	–	–
{4‑Imidazoleacetyl}-NSF[azaGly]L[Arg(Me)]F-NH2 [Compound No. 323: des(1-3)-4-Imidazoleacetyl-[AzaGly7,Arg(Me)9]MS10]	1 specific activity to metastin (1-54)	280	–	–
B9	3 specific activity to metastin (1-54)	14	–	–
